The values that follow come from US20230151079.

The subject of the series is Recombinant protein (SEQ ID NO: 1), modified from sculptin of the tick Amblyomma cajennense.
For the substance plasmin, the “hydrolysis of recombinant protein by serine protease (SDS-PAGE, 6 h)” value (shortened to “hydrolysis of recombinant protein”) was “strip of 20-kDa completely disappeared in recombinant protein incubated by plasm in and trypsin”.

Consider trypsin, for which the “hydrolysis of recombinant protein” value was “strip of 20-kDa completely disappeared in recombinant protein incubated by plasm in and trypsin”.

Consider thrombin, for which the “hydrolysis of recombinant protein” value was “strip intensity of 20-kDa (corresponding to non-digested recombinant protein) decreased and strips of lower molecular weight appeared in recombinant protein incubated by thrombin”.

Take factor Xa: the “hydrolysis of recombinant protein” value is given as “factor Xa also converted the recombinant protein in fragments”.
